Results from patent US12600782 (BIOTHEUS, dated 2026).
Read-outs that look alike come from different tables or passages of the source.

B6: human PD-L2 protein (purchased from AcroBiosystems) (ligand, UniProt Q9BQ51 20-219, looked up)
chain: LFTVTVPKELYIIEHGSNVTLECNFDTGSHVNLGAITASLQKVENDTSPHRERATLLEEQLPLGKASFHIPQVQVRDEGQYQCIIIYGVAWDYKYLTLKVKASYRKINTHILKVPETDEVELTCQATGYPLAEVSWPNVSVPANTSHSRTPEGLYQVTSVLRLKPPPGRNFSCVFWNTHVRELTLASIDLQSQMEPRTHP
modifications: biotinylated in the blocking assays
notes: Bought soluble protein; also called PD-L2 antigen; biotinylated human PD-L2 protein

Tests used:
[1] = target: human PD-L1 protein (purchased from AcroBiosystems) (human) (UniProt Q9NZQ7); assay: BLI (ForteBio), antibody on AHQ sensor, 100 nM PD-L1 antigen, 1:1 model
[2] = target: human PD-L1 protein (purchased from AcroBiosystems) (human) (UniProt Q9NZQ7); assay: as above; remark: listed apart in the source
[3] = target: human PD-L1 on CHO cells (CHO-hPD-L1 cells) (human) (UniProt Q9NZQ7); assay: flow cytometry on CHO-hPD-L1 cells, PE anti-human IgG-Fc, MFI; table under the plot, unit from the concentration axis
[4] = target: human PD-L1 protein (purchased from AcroBiosystems) (human) (UniProt Q9NZQ7); assay: flow cytometry blocking assay: antibody pre-incubated with biotinylated human PD-L1 protein (1 ug/ml), binding of PD-L1 to CHO-hPD-1 cells read as MFI; falling curve, the table under the plot calls the half-maximal concentration EC50; unit from the concentration axis
[5] = target: B6; assay: BLI (ForteBio), antibody on AHQ sensor, 100 nM PD-L2 antigen, 1:1 model
Protocol: (§1) ForteBio affinity determination was carried out according to existing methods (Estep, P et al., High throughput solution-based measurement of antibody-antigen affinity and epitope binning. MAbs, 2013.5(2): p. 270-8). In short, the sensor was equilibrated for 30 min under the line of the analysis buffer, and then the baseline was established after online detection for 60 s. The purified antibody obtained as described above was loaded onto the AhQ sensor online. […] Kinetic analysis was performed using a 1:1 binding model.
(§2) The experimental method was the same as that in Example 1.5.

[6] = target: B6; assay: as above; remark: listed apart in the source
Protocol: as §1

[7] = target: T1, human PD-L2 on CHO cells (CHO-hPD-L2 cells) (human, UniProt Q9BQ51 20-273); assay: flow cytometry on CHO-hPD-L2 cells, PE anti-human IgG-Fc, median fluorescence intensity (MFI)
T1 construct: whole, on cells; also called CHO-K1-PD-L1/PD-L2
T1 sequence (looked up): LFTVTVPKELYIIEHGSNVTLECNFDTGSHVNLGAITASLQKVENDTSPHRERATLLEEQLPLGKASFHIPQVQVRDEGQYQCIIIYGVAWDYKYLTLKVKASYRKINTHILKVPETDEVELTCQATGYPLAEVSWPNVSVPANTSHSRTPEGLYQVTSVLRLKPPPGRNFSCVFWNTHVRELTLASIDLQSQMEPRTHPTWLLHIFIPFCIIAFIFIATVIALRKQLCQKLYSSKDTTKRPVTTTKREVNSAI
Protocol: (§3) The expanded CHO-hPD-L2 cells were adjusted to a cell density of 2×10⁶ cells/ml, and were added to 96-well flow plate at 100 μl/well, and centrifuged for later use. […] The diluted samples were added to the 96-well flow plate with cells at 100 μl/well, incubated at 4° C. for 30 min, and washed twice with PBS. Goat F(ab')2 anti-human IgG-Fc (PE) (purchased from Abcam) diluted 100 times with PBS was added at 100 μl/well, incubated at 4° C. for 30 min, and washed twice with PBS. PBS was added at 100 μl/well to resuspend cells, and detection was performed on a CytoFlex (Bechman) flow cytometer and the corresponding MFI was calculated.

[8] = target: T1, human PD-L2 on CHO cells (CHO-hPD-L2 …); assay: as above; remark: listed apart in the source
Protocol: as §3

[9] = target: B6; assay: flow cytometry blocking assay: antibody pre-incubated with biotinylated human PD-L2 protein (1 ug/ml), binding of PD-L2 to CHO-hPD-1 cells read as MFI
Protocol: (§4) CHO cells overexpressing human PD-1 (CHO-hPD-1 cells) were generated by transfection of the pCHO1.0 vector (purchased from Invitrogen™) cloning human PD-1 cDNA (purchased from Sino Biological). The expanded CHO-hPD-1 cells were adjusted to a cell density of 2×10⁶ cells/ml, and were added to 96-well flow plate at 100 μl/well, and centrifuged for later use. The purified mutant sample was diluted with PBS and diluted 3 times from […] for 12 points. […] The co-incubation sample was added to the above-mentioned 96-well flow plate with cells 100 μl/well, incubated at 4° C. for 30 min, and washed twice with PBS. APC goat anti-mouse IgG (minimum×reactive) antibody diluted 100 times with PBS (purchased from Biolegend®) was added at 100 μl/well, incubated at 4° C. for 30 min, and washed twice with PBS. PBS was added at 100 μl/well to resuspend cells, and detection was performed on a CytoFlex (Bechman) flow cytometer and the corresponding MFI was calculated.

[10] = target: B6; assay: flow cytometry blocking assay: antibody pre-incubated with biotinylated human PD-L2 protein (1 ug/ml), binding of PD-L2 to CHO-hPD-1 cells read as MFI (APC)
Protocol: as §4

[11] = target: T1, human PD-L2 on CHO cells (CHO-hPD-L2 …); assay: flow cytometry on CHO-hPD-L2 cells, PE anti-human IgG-Fc, MFI; table under the plot, unit from the concentration axis
[12] = target: B6; assay: flow cytometry blocking assay: antibody pre-incubated with biotinylated human PD-L2 protein (1 ug/ml), binding of PD-L2 to CHO-hPD-1 cells read as MFI (APC); falling curve, the table under the plot calls the half-maximal concentration EC50; unit from the concentration axis
Protocol: (§5) The expanded CHO-hPD-1 cells were adjusted to a cell density of 2 ×10^6 cells/ml, and were added to 96-well flow plate at 100 μl/well, and centrifuged for later use. The purified mutant sample was diluted with PBS and diluted 3 times from […] for 12 points.
(§6) 28 purified sample at 4° C. for 30 min. The co-incubation sample was added to the above-mentioned 96-well flow plate with cells at 100 μl/well, incubated at 4° C. for 30 min, and washed twice with PBS. APC goat anti-mouse IgG (minimum×reactivity) antibody diluted 100 times with PBS (purchased from Biolegend®) was added at 100 μl/well, incubated at 4° C. for 30 min, and washed twice with PBS. PBS was added at 100 μl/well to resuspend cells, and detection was performed on a CytoFlex (Bechman) flow cytometer and the corresponding MFI was calculated.

[13] = target: T2, human PD-L1 protein (purchased from AcroBiosystems) (human, UniProt Q9NZQ7 19-238, biotinylated in the blocking assay); assay: BLI (ForteBio), antibody on AHQ sensor, 100 nM PD-L1 antigen, 1:1 model
T2 construct: Bought soluble protein; also called PD-L1 antigen; biotinylated human PD-L1 protein
Protocol: as §1

[14] = target: T3, human PD-L1 on CHO cells (CHO-hPD-L1 cells) (human, UniProt Q9NZQ7 19-290); assay: flow cytometry on CHO-hPD-L1 cells, PE anti-human IgG-Fc, median fluorescence intensity (MFI)
T3 construct: whole, on cells; also called CHO-K1-PD-L1/PD-L2

[15] = target: T3, human PD-L1 on CHO cells (CHO-hPD-L1 …); assay: flow cytometry on CHO-hPD-L1 cells, PE anti-human IgG-Fc, MFI; table under the plot, unit from the concentration axis
[16] = target: T2, human PD-L1 protein (purchased from …); assay: flow cytometry blocking assay: antibody pre-incubated with biotinylated human PD-L1 protein (1 ug/ml), binding of PD-L1 to CHO-hPD-1 cells read as MFI; falling curve, the table under the plot calls the half-maximal concentration EC50; unit from the concentration axis
Protocol: as §5, §6

[17] = target: T2, human PD-L1 protein (purchased from …); assay: BLI (ForteBio), antibody on AHQ sensor, 100 nM PD-L1 antigen, 1:1 model; remark: listed apart in the source
Protocol: as §1, §2

[18] = target: T4, human PD-1 on CHO cells (CHO-hPD-1 cells) (human, UniProt Q15116 25-288); assay: flow cytometry: biotinylated human PD-L2 protein (1 ug/ml) on CHO-hPD-1 cells, no antibody
T4 construct: whole, on cells
Protocol: as §4

T3 sequence (Q9NZQ7 19-290): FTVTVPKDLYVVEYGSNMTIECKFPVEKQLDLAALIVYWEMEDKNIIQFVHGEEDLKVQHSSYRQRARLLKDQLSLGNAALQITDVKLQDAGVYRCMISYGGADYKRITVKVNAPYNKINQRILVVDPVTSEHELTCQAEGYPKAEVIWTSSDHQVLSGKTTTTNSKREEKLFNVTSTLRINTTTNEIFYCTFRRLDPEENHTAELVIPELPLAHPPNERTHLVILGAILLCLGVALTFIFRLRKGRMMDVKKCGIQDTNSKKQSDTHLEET
Sequence of human PD-L1 protein (purchased from AcroBiosystems) (human) (Q9NZQ7 19-238 limits assumed): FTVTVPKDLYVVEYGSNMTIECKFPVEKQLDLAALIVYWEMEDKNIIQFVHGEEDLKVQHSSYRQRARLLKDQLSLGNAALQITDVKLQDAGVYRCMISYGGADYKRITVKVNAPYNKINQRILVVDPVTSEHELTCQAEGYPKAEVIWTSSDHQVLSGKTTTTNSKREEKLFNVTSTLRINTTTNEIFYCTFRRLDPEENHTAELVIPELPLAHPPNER
T2 sequence (Q9NZQ7 19-238 limits assumed): as above
Sequence of human PD-L1 on CHO cells (CHO-hPD-L1 cells) (human) (Q9NZQ7 19-290): as the sequence (Q9NZQ7 19-290) above
T4 sequence (Q15116 25-288): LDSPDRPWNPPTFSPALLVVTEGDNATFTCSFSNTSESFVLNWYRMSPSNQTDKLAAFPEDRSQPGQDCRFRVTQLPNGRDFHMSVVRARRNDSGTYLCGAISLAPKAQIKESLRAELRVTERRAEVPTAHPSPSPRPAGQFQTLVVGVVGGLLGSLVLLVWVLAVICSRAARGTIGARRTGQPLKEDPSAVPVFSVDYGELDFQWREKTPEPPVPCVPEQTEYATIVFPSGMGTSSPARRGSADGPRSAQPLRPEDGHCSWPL

control antibody ATE
Kd [1]: 1.3 nM
Kd [2]: 1.16 nM
EC50 [3]: 4.53 nM
EC50 [4]: 6.31 nM

B1: D-Na-96 (antibody, V domains shown)
VH: QVQLVESGGGLVQAGASLRLSCAASGRTFSSMTIGWFRQTPGKEREFVAGIGWTSGLTVYADSVKGRFTISRDNAEKTMYLHMNNLKPEDTSVYYCAADSMNRGQFDYWGQGTQVTVSS
notes: Anti-PD-L2 heavy chain antibody: VHH linked to human IgG1 (LALA) Fc; the junction is not described
Kd [5]: 2.5 nM
koff [5]: 0.000655 s⁻¹
kon [5]: 262000 M⁻¹ s⁻¹
Kd [6]: 1.27 nM
koff [6]: 0.0011 s⁻¹
kon [6]: 862000 M⁻¹ s⁻¹
EC50 (read off the curve) [7]: ~50 nM
EC50 (read off the curve) [8]: ~6 nM
IC50 (read off the curve) [9]: ~9 nM
IC50 (read off the curve) [10]: ~2 nM

B2: HZ-D-Na-96-1 (antibody, V domains shown)
VH: EVQLVESGGGLVQPGGSLRLSCAASGRTFSSMTIGWFRQAPGKGLEFVSGIGWTSGLTVYADSVKGRFTISRDNAKNSMYLQMNSLRAEDTAVYYCAADSMNRGQFDYWGQGTLVTVSS
notes: Humanized anti-PD-L2 heavy chain antibody: VHH linked to human IgG1 (LALA) Fc; the junction is not described
Kd [5]: 1.68 nM
koff [5]: 0.000577 s⁻¹
kon [5]: 344000 M⁻¹ s⁻¹
Kd [6]: 1.11 nM
koff [6]: 0.0004 s⁻¹
kon [6]: 360000 M⁻¹ s⁻¹
EC50 (read off the curve) [8]: ~4 nM
EC50 [11]: 1.75 nM
IC50 (read off the curve) [10]: ~2 nM
EC50 [12]: 13.4 nM

B3: K-Yr-13&14-02 (antibody, V domains shown)
VH: QVQLVESGGGLVKAGDSLRLSCAASGHTFIIYAIGWFRQAPGKEREFVATINWSGSMTNYTDSVKGRFTISRDNAKNTVYLQMNSLKPDDTAIYYCAAYVGATISTAHSRYDYWGQGTQVTVSS
notes: Anti-PD-L1 heavy chain antibody: VHH linked to human IgG1 (LALA) Fc; the junction is not described
Kd [13]: 0.96 nM
koff [13]: 0.000561 s⁻¹
kon [13]: 585000 M⁻¹ s⁻¹
EC50 (read off the curve) [14]: ~8 nM

B4: Bi-203-204 (bispecific antibody, human IgG1, kappa, L234A L235A, V domains shown)
V domain 1: QVQLVESGGGLVKPGGSLRLSCAASGHTFIIYAIGWFRQAPGKGLEFVATINWSGSMTNYADSVKGRFTISRDNAKNTVYLQMNSLKPDDTAVYYCAAYVGATISTAHSRYDYWGQGTLVTVSS
V domain 2: EVQLVESGGGLVQPGGSLRLSCAASGRTFSSMTIGWFRQAPGKGLEFVSGIGWTSGLTVYADSVKGRFTISRDNAKNSMYLQMNSLRAEDTAVYYCAADSMNRGQFDYWGQGTLVTVSS
notes: Formula III + IV format
Kd [13]: 1.59 nM
koff [13]: 0.000405 s⁻¹
kon [13]: 254000 M⁻¹ s⁻¹
Kd [6]: 1.14 nM
koff [6]: 0.000424 s⁻¹
kon [6]: 372000 M⁻¹ s⁻¹
EC50 [15]: 3.74 nM
EC50 [11]: 1.25 nM
EC50 [16]: 12.3 nM
EC50 [12]: 8.35 nM

B5: HZ-K-Yr-13&14-02-3 (antibody, V domains shown)
VH: QVQLVESGGGLVKPGGSLRLSCAASGHTFIIYAIGWFRQAPGKGLEFVATINWSGSMTNYADSVKGRFTISRDNAKNTVYLQMNSLKPDDTAVYYCAAYVGATISTAHSRYDYWGQGTLVTVSS
notes: Humanized anti-PD-L1 heavy chain antibody: VHH linked to human IgG1 (LALA) Fc; the junction is not described; also called HZ-K-13&14-02-3
Kd [17]: 0.223 nM
koff [17]: 9.92e-05 s⁻¹
kon [17]: 445000 M⁻¹ s⁻¹
Kd [13]: 1.38 nM
koff [13]: 0.000309 s⁻¹
kon [13]: 224000 M⁻¹ s⁻¹
EC50 (read off the curve) [14]: ~10 nM
EC50 [15]: 2.55 nM
EC50 [16]: 5.17 nM

B6
binding result [18]: binds
